Consider 4 compounds from US7256013B2, “Kit for determining the acetylation level of a peptide based on sensitivity of the peptide to peptidase” (Cyclex Co., Ltd., priority 1999, dated 2007).

The star is where a group is joined. AMC = Cc1cc(=O)oc2cc(N*)ccc12; Boc = CC(C)(C)OC(=O)*

For one assay, the target named is T1, recombinant SIRT1 (Homo sapiens, UniProt Q96EB6).
T1 construct: the first amino acid residue to the 747th residue of SIRT1 (full length) was amplified using this primer set; made in house; host or cells: E. coli BL21 Gold (DE3), vector pGEX-4T-1
T1 sequence (Q96EB6 1-747): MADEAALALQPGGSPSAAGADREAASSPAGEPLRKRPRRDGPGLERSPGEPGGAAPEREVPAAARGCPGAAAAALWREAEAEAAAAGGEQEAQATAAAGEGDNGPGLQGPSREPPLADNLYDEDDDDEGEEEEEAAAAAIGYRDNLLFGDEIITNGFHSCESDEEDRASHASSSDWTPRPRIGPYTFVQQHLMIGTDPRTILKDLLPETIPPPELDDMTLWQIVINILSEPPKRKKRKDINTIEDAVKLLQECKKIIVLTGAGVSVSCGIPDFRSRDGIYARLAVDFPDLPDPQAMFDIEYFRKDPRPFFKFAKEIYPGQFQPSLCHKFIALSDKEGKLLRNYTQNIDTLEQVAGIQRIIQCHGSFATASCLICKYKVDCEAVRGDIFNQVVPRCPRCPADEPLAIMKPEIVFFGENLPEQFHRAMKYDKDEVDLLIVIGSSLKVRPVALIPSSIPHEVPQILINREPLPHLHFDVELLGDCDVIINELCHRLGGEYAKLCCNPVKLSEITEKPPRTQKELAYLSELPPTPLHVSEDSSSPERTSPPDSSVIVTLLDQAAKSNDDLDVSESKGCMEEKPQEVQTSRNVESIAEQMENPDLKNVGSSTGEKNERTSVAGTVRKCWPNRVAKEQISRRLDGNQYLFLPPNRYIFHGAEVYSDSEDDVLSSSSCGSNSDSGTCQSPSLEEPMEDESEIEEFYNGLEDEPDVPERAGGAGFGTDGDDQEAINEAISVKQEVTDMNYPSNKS
Briefly: SIRT1 deacetylase activity assay (FMAP) with Nma-VGAK(Ac)RHSK(Dnp)-NH2 and lysylendopeptidase. The note with it: serial dilutions of NAD added to the reaction solution; FIG. 7. It counts as biochemical. The procedure: Peptide for the SIRT1-activity assay: Nma-VGAK(Ac)RHSK(Dnp)-NH2
5 μl of 0.005 U/μl lysylendopeptidase (LEP) was combined with 90 μl of an enzyme reaction buffer (50 mM Tris-HCl (pH 8.8), 4 mM MgCl2, 0.2 mM DTT) and 1 μl of 10 mM peptide solution for SIRT1-activity assay. 2 μl of 5 mM NAD and 2 μl of each of serial dilutions of a recombinant SIRT1 solution, or alternatively 2 μl of each of serial dilutions of an NAD solution and 2 μl of a solution containing 1 mg/ml recombinant SIRT1 were added at the same time to the mixture. The enzyme reaction and fluorescence assay were performed at 30° C. using 384-well plates for fluorescence assay.
The fluorescence intensity was measured at excitation wavelength 355 nm/fluorescence wavelength 460 nm by using a Wallac 1420 ARVO HTS Multi Label Counter. The measurement was repeated at about 2- to 3-minute intervals for 50 minutes.
It has been reported that the presence of NAD is essential for the deacetylase activity of SIRT1. In order to assess whether the NAD-dependency of SIRT1 activity can be detected using the assay method, an NAD solution was serially diluted and each dilution was added to the reaction solution, and then observation was made for the changes in the fluorescence intensity.

The subject of a further assay is histone deacetylase. As to the kind of experiment: Histone deacetylase activity assay with Boc-Val-Leu-(Ac)Lys-MCA and lysylendopeptidase (fluorescence). The assay is classed as biochemical, human. The note with it: at a concentration of about 200 nM; FIG. 5. On the procedure: MCF7 cells were washed with PBS, and then centrifuged. Precipitated cells were suspended in 4 ml lysis buffer and were left standing 15 minutes on ice. 5 ml lysate buffer was obtained by washing the centrifuge tube with 1 ml lysis buffer. The lysate was loaded on 15 ml sucrose cushion buffer in a centrifuge tube for type-07 rotor. Then, The tubes were centrifuged at 1300 g for 20 minutes and precipitated cells were recovered with 1.5 ml of the lysis buffer. After washing the cells, the cells were suspended in 700 μl low-salt buffer. The cells were sonicated for 30 seconds, and then allowed to stand still on ice for 30 minutes. The lysate was centrifuged at 100,000 g for 40 minutes, and the supernatant was collected to recover crude histone deacetylase. The pooled crude histone deacetylase was placed in a 1.5-ml tube, and was dialyzed overnight against a solution containing 50% glycerol, 150 mM NaCl, and 20 mM Tris (pH 7.5). The dialysate was substituted 3 times with fresh buffer. […]
1 μl of DMSO solution containing 10 mM substrate peptide, Boc-Val-Leu-(Ac)Lys-MCA, was added to 64 μl HDAC reaction buffer (25 mM Tris-HCl pH 7.5) for each assay. […] The fluorescence intensity was measured every 150 seconds with fluorescence microplate reader. The fluorescence intensity was measured using Wallac 1420 ARVOsx Multi Label Counter (Amersham-Pharmacia Biotech). […]

Another assay has as its target lysylendopeptidase (Achromobacter lyticus, UniProt P15636). Briefly: Cleavage of fluorescence-labeled substrate peptide by lysylendopeptidase. It counts as biochemical. The settings on record: 5×10^−6 AU lysylendopeptidase; FIG. 1. On the procedure:
(§1) 1 μl of DMSO solution containing 10 mM substrate peptide, Boc-Val-Leu-(Ac)Lys-MCA, was added to 64 μl HDAC reaction buffer (25 mM Tris-HCl pH 7.5) for each assay. The mixture was poured into the wells of a microplate for fluorometry and was incubated at 30° C. Then, 10 μl of histone deacetylase solution was added to each well and the plate was subjected for deacetylation at 30° C. for 60 minutes. After the reaction, 5 μl of peptidase solution that was diluted with 25 mM Tris-HCl (pH 7.5) to an optimal concentration and 20 μl 5× protease reaction buffer were added to each well. The fluorescence intensity was measured every 150 seconds with fluorescence microplate reader. The fluorescence intensity was measured using Wallac 1420 ARVOsx Multi Label Counter (Amersham-Pharmacia Biotech). The composition of the reaction buffer was as follows.
(§2) 5×10^−6 AU lysylendopeptidase or 0.001U plasmin was added to Boc-Val-Leu-Lys-MCA or Boc-Val-Leu-(Ac)Lys-MCA. The Figures show the fluorescence intensity measured at an interval of about 150-seconds.

Another assay addresses plasmin (Homo sapiens, UniProt P00747). Briefly: Cleavage of fluorescence-labeled substrate peptide by plasmin. It counts as biochemical. The note with it: 0.001U plasmin; FIG. 2. On the procedure: as §1, §2

Sequence of plasmin (P00747 581-810 limits assumed, species assumed): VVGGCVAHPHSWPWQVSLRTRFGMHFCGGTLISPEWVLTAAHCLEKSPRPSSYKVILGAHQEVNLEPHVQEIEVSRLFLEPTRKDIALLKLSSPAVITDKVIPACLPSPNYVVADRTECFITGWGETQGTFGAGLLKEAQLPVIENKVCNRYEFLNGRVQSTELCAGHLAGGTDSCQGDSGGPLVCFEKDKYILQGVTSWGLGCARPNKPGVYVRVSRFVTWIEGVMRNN
Sequence of plasmin (P00747 97-580 partner limits assumed, species assumed): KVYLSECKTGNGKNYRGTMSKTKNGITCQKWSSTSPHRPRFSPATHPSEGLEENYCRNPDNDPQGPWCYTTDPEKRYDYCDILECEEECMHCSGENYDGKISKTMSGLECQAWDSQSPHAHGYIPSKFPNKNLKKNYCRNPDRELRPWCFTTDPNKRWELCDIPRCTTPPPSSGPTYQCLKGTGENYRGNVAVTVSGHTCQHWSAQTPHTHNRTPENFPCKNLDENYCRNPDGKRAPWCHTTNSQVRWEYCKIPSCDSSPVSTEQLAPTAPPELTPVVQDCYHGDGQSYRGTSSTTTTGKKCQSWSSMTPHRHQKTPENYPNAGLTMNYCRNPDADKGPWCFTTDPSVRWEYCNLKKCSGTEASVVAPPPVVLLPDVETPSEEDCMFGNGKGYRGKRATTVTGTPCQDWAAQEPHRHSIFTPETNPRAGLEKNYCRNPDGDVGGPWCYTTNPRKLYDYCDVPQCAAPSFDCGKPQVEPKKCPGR
Sequence of lysylendopeptidase (P15636 206-473 limits assumed, species assumed): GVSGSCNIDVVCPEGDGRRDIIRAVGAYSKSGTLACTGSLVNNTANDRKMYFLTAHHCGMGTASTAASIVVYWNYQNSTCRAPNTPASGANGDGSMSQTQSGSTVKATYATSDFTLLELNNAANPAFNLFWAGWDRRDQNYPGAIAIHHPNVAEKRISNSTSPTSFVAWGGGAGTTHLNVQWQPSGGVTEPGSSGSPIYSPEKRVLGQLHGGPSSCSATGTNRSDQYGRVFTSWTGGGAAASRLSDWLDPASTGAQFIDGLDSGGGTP

For `NC(=O)c1ccc[n+]([C@@H]2O[C@H](COP(=O)([O-])OP(=O)(O)OC[C@H]3O[C@@H](n4cnc5c(N)ncnc54)[C@H](O)[C@@H]3O)[C@@H](O)[C@H]2O)c1` [NAD], the “fluorescence intensity (deacetylation activity of recombinant SIRT1)” value on recombinant SIRT1 is on record as “increased in an NAD concentration-dependent fashion”. Regarding `CC(/C=C/C(=O)NO)=C\[C@@H](C)C(=O)c1ccc(N(C)C)cc1` [Trichostatin A], the “effect on the deacetylation reaction (inhibition)” value in the assay on histone deacetylase is reported as “almost completely inhibited”.

In the case of “Boc-Val-Leu-(Ac)Lys-MCA (VLK; HELM PEPTIDE1{[CC(C)(C)OC(=O)[*:2]].V.L.K.[Cc1cc(=O)oc2cc(N[*:1])ccc12]}|PEPTIDE2{[ac]}$PEPTIDE1,PEPTIDE2,4:R3-1:R2$$$V2.0; SMILES CC(=O)NCCCC[C@H](NC(=O)[C@H](CC(C)C)NC(=O)[C@@H](NC(=O)OC(C)(C)C)C(C)C)C(=O)Nc1ccc2c(C)cc(=O)oc2c1) [fluorescence labeled substrate peptide with an acetylated lysine residue]”, the “peptide cleavage by lysylendopeptidase” value with lysylendopeptidase is on record as “did not cleave”. Moreover, the “peptide cleavage by plasmin” value with plasmin is “did not cleave”. Regarding “Boc-Val-Leu-Lys-MCA (Boc-Val-Leu-Lys-{AMC}) [fluorescence labeled substrate peptide, non-acetylated]”, the “peptide cleavage by lysylendopeptidase” value in the assay with lysylendopeptidase is on record as “digested”. In addition, the “peptide cleavage by plasmin” value in the assay with plasmin is given as “digested”.
